# Results: US20180258161A1 (Chugai, published 2018)
# T1: soluble human IL-6 receptor (human, UniProt P08887 20-357)
# T1 construct: also called hsIL-6R; hIL6R
# T1 sequence: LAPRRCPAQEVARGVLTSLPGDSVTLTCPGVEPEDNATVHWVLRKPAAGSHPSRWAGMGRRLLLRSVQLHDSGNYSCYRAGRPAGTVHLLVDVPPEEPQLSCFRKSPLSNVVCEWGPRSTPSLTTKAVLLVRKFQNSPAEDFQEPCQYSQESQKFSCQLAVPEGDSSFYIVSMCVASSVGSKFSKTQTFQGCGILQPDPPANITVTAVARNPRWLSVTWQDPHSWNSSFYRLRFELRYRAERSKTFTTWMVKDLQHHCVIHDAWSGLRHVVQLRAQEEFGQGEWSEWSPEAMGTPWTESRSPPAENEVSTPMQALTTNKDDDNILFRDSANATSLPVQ
# Experiments:
# [1] = biological target: T1, soluble human IL-6 receptor; assay: Biacore T100, antibody captured by Protein A, 37 C
# [2] = biological target: T1, soluble human IL-6 receptor; assay: Biacore T100
# human interleukin 6 = biological target: T2, human interleukin 6 (human, UniProt P05231 30-212, limits assumed); assay: Biacore T100, antibody captured by Protein A/G, pH 7.4, 37 C
# T2 construct: also called hIL6; IL-6
# Description: Using Biacore T100 (GE Healthcare), the prepared antibodies were assessed for their binding activity (dissociation constant KD (M)) to human interleukin 6 (hIL6) at pH 7.4. The measurement was carried out using as a running buffer 0.05% Tween20, 10 mmol/1 ACES, 150 mmol/l NaCl (pH 7.4) containing 3 μM or 1.2 mM CaCl₂.
# After an adequate amount of recombinant Protein A/G (Thermo Scientific) was immobilized onto Sensor chip CM5 (GE Healthcare) by an amino coupling method, antibodies were allowed to bind thereto. An appropriate concentration of hIL6 (human interleukin 6; Kamakura Techno-Science, Inc.) was injected as an analyte to interact with antibodies on the sensor chip. Then, the sensor chip was regenerated by injecting 10 mmol/1 glycine-HCl (pH 1.5). The measurement was carried out at 37° C.
# recombinant human IgA [3] = biological target: T3, recombinant human IgA (human); assay: Biacore T200, pH 8.0, 10 mM Ca, 1:1 binding model
# T3 construct: Antigen; H(WT)-IgA1 with L(WT); The text calls human IgA a dimeric antigen; also called hIgA
# Description: (§1) Using Biacore T200 (GE Healthcare), the obtained antibodies were assessed for their binding activity to human IgA (dissociation constant KD (M)). The measurement was carried out using as a running buffer 0.05% tween20, 20 mmol/1 ACES, 150 mmol/l NaCl (pH 7.4 or pH 5.8) containing 3 μM or 1.2 mM CaCl₂, or 0.05% tween20, 20 mmol/1 ACES, 150 mmol/l NaCl (pH 8.0) containing 0.1 μM or 10 mM CaCl₂.
# (§2) After an adequate amount of recombinant Protein A/G (Thermo Scientific) was immobilized onto the Sensor chip CM5 (GE Healthcare) by an amino coupling method, antibodies were allowed to bind onto the sensor chip. An appropriate concentration of hIgA (described in (20-1)) was injected as an analyte to interact with antibodies on the sensor chip. Then, the sensor chip was regenerated by injecting 10 mmol/l glycine-HCl, pH 1.5. The measurement was carried out at 37° C. From the assay result, the dissociation constant KD (M) was calculated based on curve-fitting analysis and equilibrium constant analysis using Biacore T200 Evaluation Software (GE Healthcare).
# recombinant human IgA [4] = biological target: T3, recombinant human IgA; assay: Biacore T200, pH 7.4, 1.2 mM Ca, 1:1 binding model
# Description: as §1, §2
# recombinant human IgA [5] = biological target: T3, recombinant human IgA; assay: Biacore T200, pH 7.4, 3 µM Ca, 1:1 binding model
# Description: as §1, §2
# recombinant human IgA [6] = biological target: T3, recombinant human IgA; assay: Biacore T200, pH 8.0, 0.1 µM Ca, 1:1 binding model
# Description: as §1, §2
# recombinant human IgA [7] = biological target: T3, recombinant human IgA; assay: Biacore T200, pH 5.8, 3 µM Ca, 1:1 binding model
# Description: as §1, §2
# recombinant human IgA [8] = biological target: T3, recombinant human IgA; assay: Biacore T200, pH 5.8, 1.2 mM Ca, 1:1 binding model
# Description: as §1, §2
# recombinant human IgA [9] = biological target: T3, recombinant human IgA; assay: Biacore T200, pH 5.8, 3 µM Ca, steady state affinity
# Description: as §1, §2
# recombinant human IgA [10] = biological target: T3, recombinant human IgA; assay: Biacore T200, pH 7.4, 1.2 mM Ca, steady state affinity
# Description: as §1, §2
# recombinant human IgA [11] = biological target: T3, recombinant human IgA; assay: Biacore T200, pH 7.4, 3 µM Ca, steady state affinity
# Description: as §1, §2
# recombinant human IgA [12] = biological target: T3, recombinant human IgA; assay: Biacore T200, pH 5.8, 1.2 mM Ca, steady state affinity
# Description: as §1, §2
# [13] = biological target: T4, recombinant human glypican 3 (human, UniProt P51654 25-563, biotin-labeled in the ELISA); assay: ELISA on biotin-labeled GPC3
# T4 construct: Six histidine residues are linked; also called GPC3; human GPC3
# Description: The plate was incubated at 37° C. for 30 minutes. […] The plate was incubated for one hour.
# T3 sequence (heavy, as listed by the source): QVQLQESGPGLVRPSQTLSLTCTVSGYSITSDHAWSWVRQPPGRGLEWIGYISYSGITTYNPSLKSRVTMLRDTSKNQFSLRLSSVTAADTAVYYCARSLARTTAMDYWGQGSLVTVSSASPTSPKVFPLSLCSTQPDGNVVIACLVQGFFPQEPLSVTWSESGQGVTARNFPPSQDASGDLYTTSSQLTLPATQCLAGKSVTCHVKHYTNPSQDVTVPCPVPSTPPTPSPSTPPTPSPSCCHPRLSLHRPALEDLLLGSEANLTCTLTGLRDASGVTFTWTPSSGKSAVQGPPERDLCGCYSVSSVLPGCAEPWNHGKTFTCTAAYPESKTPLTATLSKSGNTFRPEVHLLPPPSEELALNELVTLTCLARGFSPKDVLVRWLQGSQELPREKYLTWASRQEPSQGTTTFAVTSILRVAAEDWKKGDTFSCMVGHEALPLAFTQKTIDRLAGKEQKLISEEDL
# T2 sequence (P05231 30-212 limits assumed): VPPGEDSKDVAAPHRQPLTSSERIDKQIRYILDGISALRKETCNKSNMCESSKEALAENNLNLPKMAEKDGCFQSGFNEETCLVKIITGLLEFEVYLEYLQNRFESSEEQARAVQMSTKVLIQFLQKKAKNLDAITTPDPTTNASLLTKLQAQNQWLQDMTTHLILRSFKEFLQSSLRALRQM
binder,measurement,setting,value
"6RK#12-IgG1 (antibody, V domains shown) VH: QVQLVQSGAEVKKPGSSVKVSCKASGGTFSSYAISWVRQAPGQGLEWMGGIIPIFGTANYAQKFQGRVTITADESTSTAYMELSSLRSEDTAVYYCARDLGDIVVVPAAPDMPKGYYYYGMDVWGQGTMVTVSS VL: EIVMTQSPATLSVSPGERATLSCRASQSINDNLAWYQQKPGQAPRLLIYGASTRATGIPARFSGSGSGTEFTLTISSLQSEDFAVYFCQQYQYWPPITFGQGTRLDIKR",binding result,[1],binds
"FH4-IgG1 (antibody, V domains shown) VH: QVQLVQSGAEVKKPGSSVKVSCKASGGTFSSYAISWVRQAPGQGLEWMGGIIPIFGTANYAQKFQGRVTITADESTSTAYMELSSLRSEDTAVYYCARERDYYDSSGYYDAFDIWGQGTMVTVSS VL: ETTVTQSPSFLSASVGDRVTITCITTTDIDDDMNWFQQEPGKAPKLLISEGNILRPGVPSRFSSSGYGTDFTLTISKLQPEDFATYYCLQSDNLPFTFGQGTKLEIKR",Ca … (KD at 3 µM CaCl2 against KD at 2 mM CaCl2),[2],≥ 60 fold
"6RL#9-IgG1 (antibody, V domains shown) VH: QVQLVQSGAEVKKPGASVKVSCKASGYTFTSYYMHWVRQAPGQGLEWMGIINPSGGSTSYAQKFQGRVTMTRDTSTSTVYMELSSLRSEDTAVYYCARDDPGGGEYYFDYWGQGTLVTVSS VL: QSVLTQPPSVSGAPGQRVTISCTGSRSNMGAGYDVHWYQLLPGAAPKLLISHNTHRPSGVPDRFSGSKSGASASLAITGLQAEDEADYYCQSHDSSLSAVVFGGGTKLTVLS",Ca … (KD at 3 µM CaCl2 against KD at 2 mM CaCl2),[2],≥ 120 fold
"6LC4-1#15-IgG1 (antibody, V domains shown) VH: QVQLVQSGAEVKKPGATVKISCKVSGYTFTDYYMHWVQQAPGKGLEWMGLVDPEDGETIYAEKFQGRVTITADTSTDTAYMELSSLRSEDTAVYYCATAGSSSNFDYWGQGTLVTVSS VL: QSALTQPRSVSGSPGQSVTISCTGTSSDVGGYNYVSWYQQHPGKAPKLMIYDVSKRPSGVPDRFSGSKSGNTASLTISGLQAEDEADYYCCSYAGSYTWVFGGGTKLTVLG",binding result,human interleukin 6,binds
"6LC4-2#16-IgG1 (antibody, V domains shown) VH: QVQLQQSGPGLVKPSQTLSLTCAISGDSVSSNSAAWNWIRQSPSRGLEWLGRTYYRSKWYNDYAVSVKSRITINPDTSKNQFSLQLNSVTPEDTAVYYCARDLIAAAGGDFDYWGQGTLVTVSS VL: QSVLTQPPSVSGAPGQRVTISCTGSRSNIGAGFDVHWYRQLPGTAPKLLIYGISNRPSGVPDRFSGSKSDTSVSLAITGLQAEDEADYYCQSYDSSLSGYVFGTGTKVTVLG",binding result,human interleukin 6,binds
"6KC4-1#85-IgG1 (antibody, V domains shown) VH: EVQLVESGGGLVQPGGSLRLSCAASGFTFSSYEMNWVRQAPGKGLEWVSYISSSGSTIYYADSVKGRFTISRDNAKNSLYLQMNSLRAEDTAVYYCARDAPYYYDSSGYTDAFDIWGQGTMVTVSS VL: EIVLTQSPATLSLSPGERATLSCRASQSVSSYLAWYQQKPGQAPRLLIFDASNRAAGIPARFSGSGSGTDFTLTISSLEPEDFAVYYCQQFDKWVTFGGGTTVEIRR",binding result,human interleukin 6,binds
"GA1-IgG1 (antibody, V domains shown, also called GAI-IgG1) VH: EVQLVQSGAEVKKPGSSVKVSCKASGGTFSSYAISWVRQAPGQGLEWMGGIIPIFGTANYAQKFQGRVTITADESTSTAYMELSSLRSEDTAVYYCARVAPGNWGSPYFDYWGQGTLVTVSS VL: DIQMTQSPSSLSASVGDRVTITCRASQSIEDDLAWYQQKPGKAPKLLIYEASSLQSGVPSRFSGSGSGTDFTLTISSLQPEDFATYYCQQRDSSPLTFGQGTKVEIKR",Kd,recombinant human IgA [3],220 nM
same,koff,recombinant human IgA [3],0.24 s⁻¹
same,kon,recombinant human IgA [3],1.1e+06 M⁻¹ s⁻¹
same,Kd,recombinant human IgA [4],150 nM
same,koff,recombinant human IgA [4],0.084 s⁻¹
same,kon,recombinant human IgA [4],570000 M⁻¹ s⁻¹
same,Kd,recombinant human IgA [5],190 nM
same,koff,recombinant human IgA [5],0.12 s⁻¹
same,kon,recombinant human IgA [5],640000 M⁻¹ s⁻¹
same,Kd,recombinant human IgA [6],100 nM
same,koff,recombinant human IgA [6],0.12 s⁻¹
same,kon,recombinant human IgA [6],1.2e+06 M⁻¹ s⁻¹
same,Kd,recombinant human IgA [7],150 nM
same,koff,recombinant human IgA [7],0.11 s⁻¹
same,kon,recombinant human IgA [7],710000 M⁻¹ s⁻¹
same,Kd,recombinant human IgA [8],140 nM
same,koff,recombinant human IgA [8],0.099 s⁻¹
same,kon,recombinant human IgA [8],680000 M⁻¹ s⁻¹
"GA2-IgG1 (antibody, V domains shown) VH: QVQLVQSGAEVKKPGSSVKVSCKASGGTFSSYAISWVRQAPGQGLEWMGGIIPIFGTANYAQKFQGRVTITADESTSTAYMELSSLRSEDTAVYYCARPRWETAISSDAFDIWGQGTMVTVSS VL: DIQMTQSPSSLSASVGDRVTITCRASQSISDDLNWYQQKPGKAPKLLIYEASNLQSGVPSRFSGSGSGTDFTLTISSLQPEDFATYYCQQHSSSPLTFGQGTKVEIKR",koff,recombinant human IgA [4],0.016 s⁻¹
"GA3-IgG1 (antibody, V domains shown) VH: QVQLVQSGAEVKKPGSSVKVSCKASGGTFSSYAISWVRQAPGQGLEWMGGIIPIFGTANYAQKFQGRVTITADESTSTAYMELSSLRSEDTAVYYCARGNGDYLEYFQHWGQGTLVTVSS VL: DIQMTQSPSSLSASVGDRVTITCRASQSISDDLAWYQQKPGKAPKLLIYEASNLQSGVPSRFSGSGSGTDFTLTISSLQPEDFATYYCQQRDSSPLTFGQGTKVEIKR",Kd,recombinant human IgA [9],1100 nM
same,Kd,recombinant human IgA [4],79 nM
same,koff,recombinant human IgA [4],0.033 s⁻¹
same,kon,recombinant human IgA [4],430000 M⁻¹ s⁻¹
same,Kd,recombinant human IgA [8],81 nM
same,koff,recombinant human IgA [8],0.035 s⁻¹
same,kon,recombinant human IgA [8],440000 M⁻¹ s⁻¹
"GA4-IgG1 (antibody, V domains shown) VH: QVQLQQSGPGLVKPSETLSLTCTILGGSISGHYWSWIRQTPGKGLEWIGYIDYSGSTHYNPSLKSRVTMSVDTSKNQFSLKLSSVTAADTAMYYCARDNWDFGSGSYYNWFDPWGQGTLVTVSS VL: DIQMTQSPSSLSASVGDRVTITCRASQSIEDDLAWYQQKPGKAPKLLIYHASSLQSGVPSRFSGSGSGTDFTLTISSLQPEDFATYYCQQSDNSPLTFGQGTKVEIKR",Kd,recombinant human IgA [9],1500 nM
same,Kd,recombinant human IgA [10],420 nM
same,Kd,recombinant human IgA [11],890 nM
same,Kd,recombinant human IgA [12],1100 nM
"GC-IgG1 (antibody, V domains shown) VH: QVQLVQSGAEVKKPGASVKVSCKASGYTFTDYEMHWVRQAPGQGLEWMGALDPKTGDTAYSQKFKGRVTLTADKSTSTAYMELSSLTSEDTAVYYCTRFYSYTYWGQGTLVTVSS VL: DVVMTQSPLSLPVTPGEPASISCRSSQSLVHSNRNTYLHWYLQKPGQSPQLLIYKVSNRFSGVPDRFSGSGSGTDFTLKISRVEAEDVGVYYCSQNTHVPPTFGQGTKLEIKR",binding result,[13],binds
